Data on one protein can be found in FireProtDB (doi:10.1002/cbic.201402128).

The conditions of the series: Sphingobium indicum (strain DSM 16413 / CCM 7287 / MTCC 6362 / UT26 / NBRC 101211 / UT26S); pH 7.5; Thermal; fluorescence; Na-Hepes 50 mM; reversible: no; whole UniProt chain shown.

Broadly, the Tm is the temperature at the midpoint of the melting transition.

“And” between values parts separate entries of the source, which are not always exact repeats. Equal entries are not always repeated.

B1: Haloalkane dehalogenase wild type, D4Z2G1 (protein)
chain: MSLGAKPFGEKKFIEIKGRRMAYIDEGTGDPILFQHGNPTSSYLWRNIMPHCAGLGRLIACDLIGMGDSDKLDPSGPERYAYAEHRDYLDALWEALDLGDRVVLVVHDWGSALGFDWARRHRERVQGIAYMEAIAMPIEWADFPEQDRDLFQAFRSQAGEELVLQDNVFVEQVLPGLILRPLSEAEMAAYREPFLAAGEARRPTLSWPRQIPIAGTPADVVAIARDYAGWLSESPIPKLFINAEPGALTTGRMRDFCRTWPNQTEITVAGAHFIQEDSPDEIGAAIAAFVRRLRPA
As to B1, the Tm is 51 °C and 49 °C.
